B1: SmN peptide, residues 219-229 (GMRPPPPGIRG) [human] / RBM5 OCRE domain (residues 451-511), wild type [human] (parent complex)
chain 1: GMRPPPPGIRG
chain 2: GAMGTKYAVPDTSTYQYDESSGYYYDPTTGLYYDPNSQYYYNSLTQQYLYWDGEKETYVPAAES

The assay covers variants of B1. Kind of assay: NMR titration (chemical shift perturbation score); 1:10 ratio of OCRE:peptide; read off a plot.
For chain 1 GMAPPPPGIAG [chain 1 R3A, chain 1 R10A], the ratio to parent is approximately 0.24. For chain 1 GMAPPPPGIRG [chain 1 R3A], the ratio to parent is approximately 0.51.

Consider chain 1 GMEPPPPGIRG [chain 1 R3E], for which the ratio to parent is approximately 0.19. chain 1 GMRPPPPGIEG [chain 1 R10E]: the ratio to parent is approximately 0.54. In the case of chain 1 GMRPPPPGIAG [chain 1 R10A] it was approximately 0.67; in that of chain 1 GMRAPAPGIRG [chain 1 P4A, chain 1 P6A], approximately 0.27. Consider chain 1 GMEPPPPGIEG [chain 1 R3E, chain 1 R10E], for which the ratio to parent is approximately 0.05.

These data come from paper PMC5127646 (2016).
